What follows are binders tested against HLA-A*2401 (purified HLA class I molecule) (human) (assay: competition with 125I-labelled probe peptide for purified HLA, gel filtration). Settings: not given.

How did the relative binding ratio (IC50 of standard peptide / IC50 of test peptide) turn out when TYLPTNASLSF [HER2/neu peptide, position 63, 11 amino acids] was run?
Its relative binding ratio (IC50 of standard peptide / IC50 of test peptide) is 8.9.

With WMALESIL [HER2/neu peptide, position 888, 8 amino acids] as the binder, how does the relative binding ratio (IC50 of standard peptide / IC50 of test peptide) read?
Its relative binding ratio (IC50 of standard peptide / IC50 of test peptide) is -0.0003.

How did the relative binding ratio (IC50 of standard peptide / IC50 of test peptide) turn out when VYMIMVKCW [HER2/neu peptide, position 951, 9 amino acids] was run?
Its relative binding ratio (IC50 of standard peptide / IC50 of test peptide) is 0.16.

VFQNLQVI [HER2/neu peptide, position 424, 8 amino acids] was tested. Which relative binding ratio (IC50 of standard peptide / IC50 of test peptide) did it give?
The relative binding ratio (IC50 of standard peptide / IC50 of test peptide) was -0.0003.

For YMIMVKCW [HER2/neu peptide, position 952, 8 amino acids], which relative binding ratio (IC50 of standard peptide / IC50 of test peptide) is on record?
The relative binding ratio (IC50 of standard peptide / IC50 of test peptide) was 0.0009.

For TYNTDTFESM [HER2/neu peptide, position 273, 10 amino acids], which relative binding ratio (IC50 of standard peptide / IC50 of test peptide) is on record?
Its relative binding ratio (IC50 of standard peptide / IC50 of test peptide) is 0.0074.

How did the relative binding ratio (IC50 of standard peptide / IC50 of test peptide) turn out when VYMIMVKCWMI [HER2/neu peptide, position 951, 11 amino acids] was run?
The relative binding ratio (IC50 of standard peptide / IC50 of test peptide) was 1.8.

VFETLEEI [HER2/neu peptide, position 399, 8 amino acids] was tested. Which relative binding ratio (IC50 of standard peptide / IC50 of test peptide) did it give?
The relative binding ratio (IC50 of standard peptide / IC50 of test peptide) was -0.0003.

How did the relative binding ratio (IC50 of standard peptide / IC50 of test peptide) turn out when WMIDSECRPRF [HER2/neu peptide, position 959, 11 amino acids] was run?
The relative binding ratio (IC50 of standard peptide / IC50 of test peptide) was 0.0011.

Same assay, conditions: scale: ratio

How did the relative binding ratio turn out when WMALESIL [HER2/neu peptide, position 888, 8 amino acids] was run?
Its relative binding ratio is -0.0003.

VYMIMVKCW [HER2/neu peptide, position 951, 9 amino acids] was tested. Which relative binding ratio did it give?
The relative binding ratio was 0.16.

YMIMVKCW [HER2/neu peptide, position 952, 8 amino acids] was tested. Which relative binding ratio did it give?
Its relative binding ratio is 0.0009.

For VYMIMVKCWMI [HER2/neu peptide, position 951, 11 amino acids], which relative binding ratio is on record?
Its relative binding ratio is 1.8.

Which relative binding ratio does the source give for WMIDSECRPRF [HER2/neu peptide, position 959, 11 amino acids] here?
Its relative binding ratio is 0.0011.

Each binder was assayed against HLA-A*2401 (human) (assay: inhibition of 125I probe peptide binding to purified HLA; IC50 standard/IC50 test). Settings: not given.

With AYSLTLQGLGI [HER2/neu 440-450] as the binder, how does the relative binding ratio read?
Its relative binding ratio is 0.023.

How did the relative binding ratio turn out when SYLEDVRL [HER2/neu 834-841] was run?
Its relative binding ratio is 0.0059.

For AFGTVYKGI [HER2/neu 730-738], which relative binding ratio is on record?
Its relative binding ratio is 0.0002.

How did the relative binding ratio turn out when CFVHTVPWDQL [HER2/neu 475-485] was run?
Its relative binding ratio is 0.0003.

Which relative binding ratio does the source give for RFTHQSDVW [HER2/neu 898-906] here?
The relative binding ratio was 0.011.

EYVNARHCL [HER2/neu 553-561] was tested. Which relative binding ratio did it give?
Its relative binding ratio is 0.0061.

How did the relative binding ratio turn out when IMVKCWMI [HER2/neu 954-961] was run?
The relative binding ratio was 0.021.

VFQNLQVI [HER2/neu 424-431] was tested. Which relative binding ratio did it give?
Its relative binding ratio is -0.0003.

How did the relative binding ratio turn out when TYLPTNASLSF [HER2/neu 63-73] was run?
Its relative binding ratio is 8.9.

With AFGTVYKGIWI [HER2/neu 730-740] as the binder, how does the relative binding ratio read?
Its relative binding ratio is 0.0008.

How did the relative binding ratio turn out when LFEDNYALAVL [HER2/neu 107-117] was run?
The relative binding ratio was 0.0006.

How did the relative binding ratio turn out when KWMALESIL [HER2/neu 887-895] was run?
Its relative binding ratio is 0.015.

For CYQDTILWKDI [HER2/neu 162-172], which relative binding ratio is on record?
The relative binding ratio was 0.0016.

SYMPIWKF [HER2/neu 609-616] was tested. Which relative binding ratio did it give?
Its relative binding ratio is 0.32.

Which relative binding ratio does the source give for SMPNPEGRYTF [HER2/neu 281-291] here?
Its relative binding ratio is 0.018.

Which relative binding ratio does the source give for RWGLLLALL [HER2/neu 8-16] here?
The relative binding ratio was 1.3.

With EYHADGGKVPI [HER2/neu 876-886] as the binder, how does the relative binding ratio read?
The relative binding ratio was -0.0003.

AYSLTLQGL [HER2/neu 440-448] was tested. Which relative binding ratio did it give?
Its relative binding ratio is 0.13.

RMARDPQRF [HER2/neu 978-986] was tested. Which relative binding ratio did it give?
The relative binding ratio was 0.0032.

How did the relative binding ratio turn out when LYISAWPDSL [HER2/neu 410-419] was run?
Its relative binding ratio is 0.084.

For RYSEDPTVPL [HER2/neu 1111-1120], which relative binding ratio is on record?
Its relative binding ratio is 0.012.

Which relative binding ratio does the source give for SYGVTVWEL [HER2/neu 907-915] here?
The relative binding ratio was 0.12.

How did the relative binding ratio turn out when PYDGIPAREI [HER2/neu 922-931] was run?
Its relative binding ratio is 0.0005.

With GMGAAKGLQSL [HER2/neu 1091-1101] as the binder, how does the relative binding ratio read?
Its relative binding ratio is -0.0003.

Which relative binding ratio does the source give for AWPDSLPDL [HER2/neu 414-422] here?
The relative binding ratio was 0.0041.

How did the relative binding ratio turn out when CFVHTVPW [HER2/neu 475-482] was run?
The relative binding ratio was 0.019.

Which relative binding ratio does the source give for TFGAKPYDGI [HER2/neu 917-926] here?
Its relative binding ratio is 0.0002.

PYVSRLLGI [HER2/neu 780-788] was tested. Which relative binding ratio did it give?
The relative binding ratio was 0.17.

LFEDNYAL [HER2/neu 107-114] was tested. Which relative binding ratio did it give?
Its relative binding ratio is 0.0006.

With DFGLARLLDI [HER2/neu 863-872] as the binder, how does the relative binding ratio read?
Its relative binding ratio is 0.0002.

With AFSPAFDNL [HER2/neu 1212-1220] as the binder, how does the relative binding ratio read?
Its relative binding ratio is 0.0011.

Which relative binding ratio does the source give for CYQDTILW [HER2/neu 162-169] here?
Its relative binding ratio is 0.012.

With VFETLEEI [HER2/neu 399-406] as the binder, how does the relative binding ratio read?
Its relative binding ratio is -0.0003.

TMRRLLQETEL [HER2/neu 686-696] was tested. Which relative binding ratio did it give?
Its relative binding ratio is -0.0003.

For AFDNLYYW [HER2/neu 1216-1223], which relative binding ratio is on record?
The relative binding ratio was 0.0039.

For CYGLGMEHL [HER2/neu 342-350], which relative binding ratio is on record?
The relative binding ratio was 0.018.

With CMQIAKGMSYL [HER2/neu 826-836] as the binder, how does the relative binding ratio read?
Its relative binding ratio is -0.0003.

LFRNPHQAL [HER2/neu 485-493] was tested. Which relative binding ratio did it give?
The relative binding ratio was 0.0002.

How did the relative binding ratio turn out when RFVVIQNEDL [HER2/neu 985-994] was run?
The relative binding ratio was 0.0002.

Which relative binding ratio does the source give for PMCKGSRCW [HER2/neu 197-205] here?
Its relative binding ratio is 0.0011.

For KYTMRRLL [HER2/neu 684-691], which relative binding ratio is on record?
The relative binding ratio was 0.0024.

With EYLVPQQGF [HER2/neu 1022-1030] as the binder, how does the relative binding ratio read?
Its relative binding ratio is 0.0014.

How did the relative binding ratio turn out when IFGSLAFL [HER2/neu 370-377] was run?
Its relative binding ratio is 0.012.

Which relative binding ratio does the source give for TYLPTNASL [HER2/neu 63-71] here?
The relative binding ratio was 0.038.

Which relative binding ratio does the source give for KWMALESI [HER2/neu 887-894] here?
The relative binding ratio was 0.008.

For GYLYISAW [HER2/neu 408-415], which relative binding ratio is on record?
The relative binding ratio was 0.0044.

With HFNHSGICEL [HER2/neu 257-266] as the binder, how does the relative binding ratio read?
Its relative binding ratio is 0.0002.

How did the relative binding ratio turn out when GMGAAKGL [HER2/neu 1091-1098] was run?
The relative binding ratio was -0.0003.

Which relative binding ratio does the source give for EFAGCKKI [HER2/neu 363-370] here?
The relative binding ratio was -0.0003.

RWGLLLAL [HER2/neu 8-15] was tested. Which relative binding ratio did it give?
The relative binding ratio was 0.025.

How did the relative binding ratio turn out when IFHKNNQL [HER2/neu 172-179] was run?
The relative binding ratio was -0.0003.

How did the relative binding ratio turn out when RFRELVSEF [HER2/neu 968-976] was run?
The relative binding ratio was 0.018.

For SWLGLRSLR [HER2/neu 451-459], which relative binding ratio is on record?
The relative binding ratio was -0.0003.

How did the relative binding ratio turn out when EYLVPQQGFF [HER2/neu 1022-1031] was run?
Its relative binding ratio is 0.012.

Which relative binding ratio does the source give for DFGLARLL [HER2/neu 863-870] here?
The relative binding ratio was 0.0005.

With VWSYGVTVWEL [HER2/neu 905-915] as the binder, how does the relative binding ratio read?
The relative binding ratio was 0.092.

LFRNPHQALL [HER2/neu 485-494] was tested. Which relative binding ratio did it give?
Its relative binding ratio is 0.0014.

With EFAGCKKIF [HER2/neu 363-371] as the binder, how does the relative binding ratio read?
The relative binding ratio was 0.0003.

Which relative binding ratio does the source give for IWIPDGENVKI [HER2/neu 738-748] here?
Its relative binding ratio is 0.0027.

Which relative binding ratio does the source give for VWSYGVTVW [HER2/neu 905-913] here?
Its relative binding ratio is 0.08.

With LMPYGCLL [HER2/neu 800-807] as the binder, how does the relative binding ratio read?
Its relative binding ratio is 0.0076.

With AFGTVYKGIW [HER2/neu 730-739] as the binder, how does the relative binding ratio read?
Its relative binding ratio is 0.001.

How did the relative binding ratio turn out when SWLGLRSLREL [HER2/neu 451-461] was run?
The relative binding ratio was 0.0036.

Source: patent publication US20040018971A1
